The record followed here is US20110135636A1 (SYMPHOGEN A S, published 2011).

Test [1] has as its target T1, wild type full length EGFR purified from A431 cells (human, UniProt P00533 25-1210).
T1 construct: mature; Bought; coated on ELISA wells; also called full length EGFR receptor antigen; Sigma E3641
Briefly: EGF blocking ELISA on coated full length EGFR; blocked ligand biotinylated EGF. How it is done:
The next morning wells were washed twice with PBS-T and blocked for one hour with 150 μl PBS-T-1% BSA at room temperature, followed by wash twice in PBS-T. Next 80 μl of serially diluted Anti-EGFR antibodies and control antibodies were added to wells and incubated 30 min at room temperature. […] Subsequently wells were washed five times with PBS-T, followed by incubation with 100 μl/well Streptavidin-HRP secondary reagent diluted 1:1000 in blocking buffer and incubation at room temperature for 30 min. Finally wells were washed five times with PBS-T and plates were developed by adding 100 μl/well TMB substrate and incubated for 60 min. After incubation the reaction was stopped by addition of 1 M H₂SO₄; 100 μl/well and plates were read at OD 450 nm.

Test [2] deals with T2, Cynomolgus EGFR extracellular domain (Cynomolgus monkey (Macaca fascicularis), UniProt P55245 25-645 (rhesus entry)).
T2 construct: Cloned without signal peptide; also called Cynomolgus rEGFR ECD; Cynomolgus EGFR ECD
In words: ELISA on coated Cynomolgus rEGFR ECD. The method, then:
To verify that tested Anti-EGFR antibodies bound equally well to both Human and Cynomolgus EGFR ECD and accordingly warranting toxicology studies in Cynomolgus monkeys, serial four fold dilutions of antibodies beginning from 1 μg/ml were tested by ELISA for binding to recombinant Human and Cynomolgus EGFR ECD proteins. […] ELISA wells were coated with 50 μl/well of full length EGFR at a concentration of 1 μg/ml in PBS overnight at 4° C. The next morning wells were washed twice with PBS-T and blocked for one hour with 100 μl PBS-T-1% BSA at room temperature, followed by wash twice in PBS-T. Next 50 μl of serially diluted Anti-EGFR antibodies and control antibodies were added to wells and incubated for one hour at room temperature. After antibody incubation wells were washed five times with PBS-T, followed by incubation with 50 μl/well Streptavidin-HRP secondary reagent diluted 1:3000 in blocking buffer and incubation at room temperature for 30 min. Finally wells were washed five times with PBS-T and plates were developed by adding 50 μL/well TMB substrate and incubated at room temperature. After incubation the reaction was stopped by addition of 1 M H₂SO₄; 100 μl/well and plates were read at OD 450 nm.
(An ELISA detects its analyte on a solid surface through an enzyme-linked reagent.)

The target of test [3] is T3, full length human EGFR expressed on the cell surface (human, UniProt P00533 25-1210).
T3 construct: whole, on cells; also called EGFR on A431-NS cells; EGFR on HN5 cells
In words: cell ELISA, IgG titrated on unfixed A431-NS cells; given as ED50. How it is done: (§1) Cell ELISA: The ELISA was performed essentially as described in example 15 with modifications. Cells were left unfixed to allow conformational EGFR flexibility after antibody additions. Briefly, 10,000 A431-NS cells were grown in 96 well ELISA plates containing DMEM with added 0.5% FCS and 1% P/S at 37° C., 5% CO₂ overnight. […] 25 μl DMEM containing 1% BSA was added to wells used for testing of IgG antibodies without added Fab fragments. […] Next, wells were washed four times with PBS and 50 μl of a secondary monoclonal Mouse-anti-Human (Fc specific) HRP conjugate diluted 1:5000 in DMEM containing 1% BSA was added and incubated on ice for 30 min. Finally wells were washed four times with PBS and plates developed by adding 50 μl/well TMB substrate and read at 620 nm every 5-15-30 min. After incubation with substrate the reaction was stopped by addition of 1 M H₂SO₄ and absorbance read at 450 nm. The functional affinity expressed as ED50 values were calculated by subtraction of the average background binding with secondary reagent only, followed by normalization of the binding curves by plotting % maximal binding relative to each antibody tested.
(§2) Investigations of antibody induced binding enhancements were determined by concurrent ELISA binding studies, employing same secondary antibody reagent and incubation times.

Test [4] has as its target T3, full length human EGFR expressed on the …. Briefly: cell ELISA, IgG titrated on unfixed A431-NS cells after saturation with Fab 992; given as ED50. The method, then:
as §1, §2

Test [5] has the same target. Briefly: cell ELISA, IgG titrated on unfixed A431-NS cells after saturation with Fab 992 and Fab 1030; given as ED50. How it is done: as §1, §2
For test [6] the target is unchanged. In words: cell ELISA, IgG titrated on unfixed A431-NS cells. How it is done: as §1, §2
Test [7] deals with T4, recombinant human EGFR extracellular domain with 6xHis (human, UniProt P00533 25-645).
T4 construct: In-house produced; also called 6xHis EGFR ECD; soluble human EGFR ECD; not shown: 6xHis tag
In words: SPR (BIAcore 2000); IgG captured on anti-human Fc, soluble EGFR ECD injected; Scatchard analysis. How it is done: Kinetic analysis of the full length IgG antibodies of the invention was performed on a BIAcore 2000, employing an assay as described in (Canziani, Klakamp, et al. 2004, Anal. Biochem, 325:301-307) allowing measurement of monovalent affinities of whole IgG molecules against soluble antigen. […] The chip surface was regenerated in between cycles by stripping the captured antibody/antigen complexes with a 10 second injection of 100 mM H₃PO₄. […] The association rate constant (ka) and dissociation constant (kd) were evaluated globally from the generated sensograms with the BIA evaluation software 4.1 provided by the manufacturer.
For orientation: SPR reads the build-up and loss of mass on a sensor chip optically.

Test [8] deals with T3, full length human EGFR expressed on the …. In words: cell ELISA, IgG titrated on unfixed A431-NS cells after saturation with Fab 1024; given as ED50. How it is done:
as §1, §2

Test [9] shares this target. Briefly: cell ELISA, IgG titrated on unfixed A431-NS cells after saturation with Fab 1030; given as ED50. The method, then:
as §1, §2

Test [10] has the same target. In words: cell ELISA, IgG titrated on unfixed A431-NS cells after saturation with Fab 1024 and Fab 1030; given as ED50. How it is done:
as §1, §2

Test [11] has the same target. Briefly: cell ELISA, IgG titrated on unfixed A431-NS cells after saturation with Fab 992 and Fab 1024; given as ED50. How it is done: as §1, §2

B1: antibody 1208 (antibody, human IgG1, kappa, V domains shown)
VH: EVQLVESGGGLVKPGGSLKLSCAASGFAFSSYDMSWVRQTPEKRLEWVAYIGSGDDNTHYPDSVKGRFTISRHNAKNTLYLQMSSLKSEDTAMYYCARQKYGNYGDTMDYWGQGTSVTVSS
VL: DVVMTQTPLSLPVSLGDQASISCRSSQSLVHSNGNTYLHWYLQKPGQSPKLLIYKVSNRFSGVPDRFSGSGSGTDFTLKISRVEAEDLGVYFCSQSTHVPTFGGGTKLEIKR
notes: Chimeric IgG1 kappa; also called clone 1208
Regarding B1, the “IC50 (read off the curve)” value in test [1] is approximately 20 ng mAb/ml. Moreover, in test [2], the binding result is listed as “binds”.

B2: antibody 1024 (antibody, human IgG1, kappa, V domains shown)
VH: QVQLQQPGAELVEPGGSVKLSCKASGYTFTSHWMHWVKQRPGQGLEWIGEINPSSGRNNYNEKFKSKATLTVDKSSSTAYMQFSSLTSEDSAVYYCVRYYGYDEAMDYWGQGTSVTVSS
VL: DIVMTQAAFSNPVTLGTSASISCRSSKSLLHSNGITYLYWYLQKPGQSPQLLIYQMSNLASGVPDRFSSSGSGTDFTLRISRVEAEDVGVYYCAQNLELPYTFGGGTKLEIKR
notes: Chimeric IgG1 kappa
By EC50 is commonly meant the concentration needed to bring the measured effect to its halfway point. Take B2: the EC50 in test [3] was determined as 1 nM; in test [4] it was 0.9 nM; in test [5] it was 0.8 nM. In addition, the “Log ED50” value in test [6] was -0.01.

B3: antibody 992 (antibody, human IgG1, kappa, V domains shown)
VH: EVQLQQPGSELVRPGASVKLSCKASGYTFTSYWMHWVKQRPGQGLEWIGNIYPGSRSTNYDEKFKSKATLTVDTSSSTAYMQLSSLTSEDSAVYYCTRNGDYYVSSGDAMDYWGQGTSVTVSS
VL: DIQMTQTTSSLSASLGDRVTISCRTSQDIGNYLNWYQQKPDGTVKLLIYYTSRLHSGVPSRFSGSGSGTDFSLTINNVEQEDVATYFCQHYNTVPPTFGGGTKLEIKR
notes: Chimeric mouse/human IgG1 kappa; the VL entry includes the human kappa constant region
By Kd is commonly meant the free concentration of one partner at which half of the binding sites on the other are occupied at equilibrium, for simple one-to-one binding. B3: the 50% effective concentration (EC50) in [3] stood at 0.6 nM; in [8] it was 0.5 nM; in test [9], 0.4 nM; in [10] it was 0.5 nM. Further, in test [7], the Kd was determined as 170 nM. In [6], the “Log ED50” value was -0.24.

B4: antibody 1030 (antibody, human IgG1, kappa, V domains shown)
VH: EVQLVESGGGLVKPGGSLKLSCAASGFTFSSYALSWVRQTPERRLEWVASISGVGSTYFPDSVKGRFTMSRDNARNILYLQMSSLRSEDTAMYYCARGSDGYFYAMDYWGQGTSVTVSS
VL: DIVLTQSPASLAVSLGQRATISCRASKSVSTSGYSFMHWYQLKPGQPPKLLIYLASNLESGVPARFSGSGSGTDFTLNIHPVEEEDAATYYCQHSREFPLTFGGGTKLEIKR
notes: Chimeric IgG1 kappa
Regarding B4, the EC50 in test [11] came out at 2.2 nM; in test [3] it was 2.2 nM; in test [4], 1.6 nM. In test [6], the “Log ED50” value turned out to be 0.33.

B5: antibody 1260 (antibody, human IgG1, kappa, V domains shown)
VH: QVQLKESGPGLVAPSQSLSITCTVSGFSLTTYGVHWVRQPPGKGLEWLGVIWAGGSTNYNSALMSRLSIKKDNSKSQVFLKMNSLQTDDTAMYYCARAYGYNFDYWGQGTTLTVSS
VL: DIQMTQTTSSLSASLGDRVTISCSASQGITNYLNWYQQKPDGTVKLLIYYSSSLHSGVPSRFSGSGSGTDYSLTISNLEPEDIATYYCQQYSEIPYTFGGGTKLELKR
notes: Chimeric IgG1 kappa
For the molecule B5, the “IC50 (read off the curve)” value in test [1] is approximately 50 ng mAb/ml.
